Test results reported in patent publication US20180142226.
Changes are numbered by the printed parent chain. Names and notes keep the numbering of the source.

T1: PFPQPQLPY peptide
T1 chain: PFPQPQLPY

T2: PFPQPQQPF peptide
T2 chain: PFPQPQQPF

B1: Kuma032 (protein)
chain: AAPTAYTPLDVAQAYQFPEGLDGQGQCIAIIELGGGYDEASLAQYFASLGVPAPQVVSVSVDGASNQPTGDPEGPDGEVTLDIEVAGALAPGAKFAVYFAPDTTAGFLDAITTAIHDPTLKPSVVSISWSGPEDSWTSAAIAAMNRAFLDAAALGVTVLAAAGDQGSTSGEQDGLYHVHFPAASPYVLACGGTRLVASGGRIAQETVWNQGPDGGATGGGVSRIFPLPAWQEHANVPPSANPGASSGRGVPDLAGNADPQTGYEVVIDGEATVTGGTSAVAPLFAALVARINQKLGKAVGYLNPTLYQLPADVFHDITEGNNDIANRAQIYQAGPGWDPCTGLGSPIGVRLLQALLPSASQPQP
B2: Kuma042 (protein)
chain: B1 chain with E73K, S130A, Q165S, S169G, H179F
B3: Kuma070 (protein)
chain: AAPTAYTPLDVAQAYQFPEGLDGQGQCIAIIELGGGYDEASLAQYFASLGVPAPQVVSVSVDGASNQPTGDPKGPDGEVTLDIEVAGALAPGAKFAVYFAPDTTAGFLDAITTAIHDPTLKPSVVSISWAMPEDSWTSAAIAAMNRAFLDAAALGVTVLAAAGDSGSTGGEQDGLYHVFFPAASPYVLACGGTRLVASGGRIAQETVWNQGPDGGATGGGVSRIFPLPAWQEHANVPPSANPGASSGRGVPDLAGNADPQTGYEVVIDGEATVTGGTSAVAPLFAALVARINQKLGKAVGYLNPTLYQLPADVFHDITEGNNDIANRAQIYQAGPGWDPCTGLGSPIGVRLLQALLPSASQPQPGSTENLYFQSGALEHHHHHH
B4: Kuma010 (protein)
chain: AAPTAYTPLDVAQAYQFPEGLDGQGQCIAIIELGGGYDEASLAQYFASLGVPAPQVVSVSVDGASNQPTGDPKGPDGEVELDIEVAGALAPGAKFAVYFAPDTTAGFLDAITTAIHDPTLKPSVVSISWSGPEDSWTSAAIAAMNRAFLDAAALGVTVLAAAGDSGSTGGEQDGLYHVHFPAASPYVLACGGTRLVASGGRIAQETVWNDGPDGGATGGGVSRIFPLPAWQEHANVPPSANPGASSGRGVPDLAGNADPATGYEVVIDGEATVIGGTSAVAPLFAALVARINQKLGKAVGYLNPTLYQLPADVFHDITEGNNDIANRAQIYQAGPGWDPCTGLGSPIGVRLLQALLPSASQPQGSTENLYFQSGALEHHHHHH
B5: Kuma062 (protein)
chain: B1 chain with G131M
B6: Kuma011-E269T (protein)
chain: AAPTAYTPLDVAQAYQFPEGLDGQGQCIAIIELGGGYDEASLAQYFASLGVPAPQVVSVSVDGASNQPTGDPKGPDGEVTLDIEVAGALAPGAKFAVYFAPDTTAGFLDAITTAIHDPTLKPSVVSISWSGPEDSWTSAAIAAMNRAFLDAAALGVTVLAAAGDSGSTGGEQDGLYHVHFPAASPYVLACGGTRLVASGGRIAQETVWNDGPDGGATGGGVSRIFPLPAWQEHANVPPSANPGASSGRGVPDLAGNADPATGYEVVIDGEATVIGGTSAVAPLFAALVARINQKLGKAVGYLNPTLYQLPADVFHDITEGNNDIANRAQIYQAGPGWDPCTGLGSPIGVRLLQALLPSASQPQ
B7: Kuma011-D402S (protein)
chain: B6 chain with T80E, D213S
B8: Kuma011-L270A (protein)
chain: B6 chain with T80E, L81A
B9: Kuma011-S354Q (protein)
chain: B6 chain with T80E, S165Q
B10: Kuma011-L270V (protein)
chain: B6 chain with T80E, L81V
B11: Kuma011-G358T (protein)
chain: B6 chain with T80E, G169T
B12: Kuma011-I463L (protein)
chain: B6 chain with T80E, I274L
B13: Kuma011-H368Q (protein)
chain: B6 chain with T80E, H179Q
B14: Kuma011-H368F (protein)
chain: B6 chain with T80E, H179F
B15: Kuma011-T406S (protein)
chain: B6 chain with T80E, T217S
B16: Kuma011-D402Q (protein)
chain: B6 chain with T80E, D213Q
B17: Kuma011-G358N (protein)
chain: B6 chain with T80E, G169N
B18: Kuma011-A449E (protein)
chain: B6 chain with T80E, A260E
B19: Kuma011-S354Y (protein)
chain: B6 chain with T80E, S165Y
B20: Kuma011-S354A (protein)
chain: B6 chain with T80E, S165A
B21: Kuma011-T461R (protein)
chain: B6 chain with T80E, T272R
B22: Kuma011-G358Q (protein)
chain: B6 chain with T80E, G169Q
B23: Kuma010/011 A449N (protein)
chain: B6 chain with T80E, A260N
B24: Kuma011-L270T (protein)
chain: B6 chain with T80E, L81T
B25: Kuma010/011 S319A (protein)
chain: B6 chain with T80E, S130A
B26: Kuma011-I463M (protein)
chain: B6 chain with T80E, I274M
B27: Kuma011-D399Q (protein)
chain: B6 chain with T80E, D210Q
B28: Kuma011-G358S (protein)
chain: B6 chain with T80E, G169S
B29: Kuma011-S354R (protein)
chain: B6 chain with T80E, S165R
B30: Kuma011-S354E (protein)
chain: B6 chain with T80E, S165E
B31: Kuma011-I463A (protein)
chain: B6 chain with T80E, I274A
B32: Kuma031 (protein)
chain: B1 chain
B33: Kuma041 (protein)
chain: B1 chain with E73K, S130A, Q165S, S169G, H179F

Biological target: DQ2.5-glia-α1a

Protein	concentration of peptide breakdown product PFPQPQ over time	Activity Improvement over Background (Kuma040)	Kcat [s⁻¹]	Km [mM]	Vmax [M/s]	kcat/Km [M⁻¹ s⁻¹]
B1	Kuma032 and Kuma042 demonstrate comparable activity as Kuma030 and Kuma040	–	–	–	–	–
B2	Kuma042 even shows a slight increase in activity against this substrate compared to Kuma040	–	–	–	–	–
B3	–	2-3x (PQL)	–	–	–	–
B4	–	–	3.7	4.6	3.7e-07	819

Biological target: DQ2.5-glia-ω1

Protein	detection of full-length peptide and of the PFPQPQ breakdown product over time	Activity Improvement over Background (Kuma040)	Kcat [s⁻¹]	Km [mM]	Vmax [M/s]	kcat/Km [M⁻¹ s⁻¹]
B5	Kuma062 demonstrates a higher level of enzymatic activity than Kuma030 or Kuma040	–	–	–	–	–
B3	–	2-4x (PQQ)	–	–	–	–
B4	–	–	1.2	16.4	1.22e-07	74

Biological target: T1, PFPQPQLPY peptide

Protein	% Improvement on PFPQPQLPY (SEQ ID NO: 67) [%]
B6	263
B7	94
B8	203
B9	145
B10	474
B11	283
B12	124
B13	199
B14	334
B15	84
B16	164
B17	120
B18	149
B19	46
B20	152
B21	120
B22	147
B23	119
B24	307
B25	154
B26	123
B27	149
B28	331
B29	109
B30	124
B31	51

Biological target: T2, PFPQPQQPF peptide

Protein	% Improvement on PFPQPQQPF (SEQ ID NO: 68) [%]
B6	191
B7	108
B8	92
B9	141
B10	61
B11	128
B12	22
B13	195
B14	104
B15	101
B16	111
B17	99
B18	208
B19	105
B20	140
B21	86
B22	149
B23	118
B24	29
B25	184
B26	53
B27	208
B28	224
B29	82
B30	120
B31	234

Biological target: peptides containing PQL

Protein	Activity Improvement over Background (Kuma030)	Activity Improvement over Background (Kuma040)	Activity Improvement over Background (Kuma031)	Activity Improvement over Background (Kuma041)
B32	No change (PQL);	–	–	–
B33	–	1.0-1.2x (PQL)	–	–
B1	–	–	No change (PQL);	–
B2	–	–	–	1.2-1.5x (PQL)
